Assay results reported in patent publication US20100291078A1 (published 2010).

Legend:
[1] = target: T1, human CD38-Fc (human, UniProt P28907 43-300, limits assumed); assay: SPR (Biacore 3000), CD38-Fc immobilized, 1:1 fit, apparent
T1 construct: not shown: Fc part

[2] = target: T2, human CD38 on cells (human, UniProt P28907 1-300); assay: FACS titration on CD38 expressing RPMI8226 cells
T2 construct: whole, on cells; The species is stated for the CHO-K1 transfectants; also called CHO-K1 cells recombinantly expressing human CD38; CD38 expressing RPMI8226 cell

Kd [1]: 3 nM
EC50 [2]: 0.4 nM
B1: MOR03080 IgG1 (antibody, V domains shown)
VH: QVQLVESGGGLVQPGGSLRLSCAASGFTFSSYGMHWVRQAPGKGLEWVSNIYSDGSNTFYADSVKGRFTISRDNSKNTLYLQMNSLRAEDTAVYYCARNMYRWPFHYFFDYWGQGTLVTVSS
VL: DIELTQPPSVSVAPGQTARISCSGDNIGNKYVSWYQQKPGQAPVVVIYGDNNRPSGIPERFSGSNSGNTATLTISGTQAEDEADYYCSSYDSSYFVFGGGTKLTVLG
